The record followed here is article doi:10.1101/2023.07.24.550339 (bioRxiv, 2023).

One data set addresses Rac1Q61L, recombinant (human, UniProt P63000 1-192, Q61L). Kind of data set: ITC.
The data set “SAXS” concerns the molecule itself. Kind of data set: SAXS.
The data set “SEC-MALS” concerns the molecule itself. Kind of data set: SEC-MALS.
Data set [1] addresses Rab35BD (MiniBAR225-553), recombinant (human, UniProt O15063 225-553). Kind of data set: ITC.

B1: Rac1BD-Rab35BD (MiniBAR70-553), recombinant (domain or fragment)
chain: not shown
For B1, in the data set with Rac1Q61L, recombinant, the equilibrium dissociation constant (Kd) was around 200 nM. Besides, in the data set “SAXS”, the “stoichiometry N” value was 2.

B2: Rac1BD (MiniBAR70-208), recombinant (domain or fragment)
chain: not shown
Consider B2, for which the “stoichiometry N” value in “SEC-MALS” amounted to 2.

B3: Rab35-GPPNHP, recombinant (natural protein)
chain: not shown
Regarding B3, the dissociation constant Kd in data set [1] was around 2000 nM.
